In patent US20240336661A1, “PEPTIDES DERIVED FROM RUMINOCOCCUS TORQUES” (University of Copenhagen, priority 2021, published 2024):

Assays:
integrin αV/β5 receptor = integrin αV/β5 receptor (Homo sapiens, UniProt P06756+P18084); test: SPOT peptide microarray (μSPOT) binding assay; conditions: for relative integrin αV/β5 binding in 15-mer peptide library screening: His-tag integrin αV/β5 2.5 nM, semi-quantitative; for relative integrin αV/β5 binding, truncation scanning library of 19-mer epitopes: integrin αV/β5 2.5 nM
Method: μSPOT peptide arrays^25 (CelluSpots, Intavis AG, Cologne, Germany) were synthesized using a RePepSL synthesizer (Intavis AG) on acid labile, amino functionalized, cellulose membrane discs (Intavis AG) containing 9-fluorenylmethy-loxycarbonyl-β-alanine (Fmoc-β-Ala) linkers (minimum loading 1.0 μmol/cm). Synthesis was initiated by Fmoc deprotection using 20% piperidine in N-methylpyrrolidone (NMP) (1×2 and 1 ×4 μL, 3 and 5 min, respectively) followed by washing with dimethylforma-mide (DMF, 7×100 μL per disc) and ethanol (EtOH, 3×300 μL per disc). The loading of the discs were reduced to 50%, by using a mixture of Fmoc-Gly-OH and Boc-Gly-OH (0.25 M: 0.25 M in NMP). All couplings were achieved using 1.2 μL of coupling solution consisting of preactivated amino acids (AAs, 0.5 M) with ethyl 2-cyano-2-(hydroxyimino)acetate oxyma (1.5 M) and N,N′-diisopropylcarbodiimide (DIC, 1.1 M) in NMP (2:1:1, AA:oxyma:DIC). The couplings were carried out 6 times (5, 10, 20, 30, 30, and 30 min, respectively), and subsequently, the membrane was capped twice with capping mixture (5% […] in NMP), followed by washes with DMF (7×100 μL per disc). After chain elongation, final Fmoc deprotection was performed with 20% piperidine in NMP (3×4 μL, 5 min each), followed by 6× washes with DMF, subsequent N-terminal acetylation with capping mixture (3×4 μL, 5 min each) and final washes with DMF (7×100 μL per disc) and EtOH (7×200 μL per disc). Dried cellulose membrane discs were transferred to 96 deep-well blocks and were treated with the side-chain deprotection solution consisting of 80% TFA, 12% DCM, 5% H2O, and 3% TIPS (150 μL per well) for 1.5 h at room temperature (rt). Afterward, the deprotection solution was removed, and the discs were solubilized overnight at rt using a solvation mixture containing 88.5% TFA, 4% trifluoromethansufonic acid (TFMSA), 5% H2O, and 2.5% TIPS (250 μL per well). The resulting peptide-cellulose conjugates were precipitated with ice-cold ether (700 μL per well) and spun down at 1000 rpm for 90 min, followed by an additional wash of the formed pellet with ice-cold ether. The resulting pellets were redissolved in DMSO (250 μL per well) to give final stocks, which were transferred to a 384-well plate and printed (in duplicates) on white coated CelluSpots blank slides (76×26 mm, Intavis AG) using a SlideSpotter robot (Intavis AG).
After the peptide array slides were rinsed with 100 mM phosphate buffered saline (PBS) (pH 7.4), the arrays were blocked with 3% bovine serum albumin (BSA) in PBS for >2 h at rt. Subsequently, the arrays were incubated with His-tagged Integrin receptor (2.5 nM) in blocking for 1 h at rt. After 5×1 min washes with blocking buffer the slides were probed with HRP-conjugated 6x-His tag antibody (1:10000, ab184607, abcam) for 0.5 h at rt. Finally, the slides were washed 3×1 min with PBS, 2×1 min with PBST, 2×1 min PBS at rt. The washed arrays visualized using SuperSignal West Femto Maximum Sensitivity Substrate (Thermo Scientific) with Fusion FX SPectra multimodal imaging platform (Vilber). The resulting blots were analyzed using the Array Analyze Software (Active Motif), which defines the error range of each data set by comparing the intensities of each peptide duplicate on the analyzed array.
Prior to the initial screening, we confirmed that the secondary antibody produces no non-specific binding (‘background binding’) to the coated microscopic slide (FIG. 41A). The relative binding affinity of the resulting peptides was then evaluated in a semi-quantitative manner by screening the μSPOT peptide array with recombinantly expressed His-tag integrin αV/β5 (2.5 nM), followed by incubation with a horse radish peroxidase (HRP) conjugated 6x-His antibody (FIG. 41B). […]

mouse 3T3-L1 fibroblasts = test: Gene expression in 3T3-L1 fibroblasts (q-PCR); format: cell-based; conditions: 3T3-L1 fibroblasts
Method: 3T3-L1 cells (a murine fibroblast cell line) were split onto 12-well plates and grown to confluence before inducing differentiation by treatment with 86 nM insulin, 0.1 μM dexamethasone, and 250 μM methyl isobutylxanthine. Two days after induction, cells were switched to an inducing medium in the presence of recombinant RUCILPs, or commercial recombinant irisin (Sigma, #SRP8039-10UG and Phoenix pharmaceuticals, #067-29A), or phosphate buffered saline (PBS) for two days. Subsequently, cells were maintained in 86 nM insulin in the presence of indicated concentrations of recombinant RUCILPs, 21-AABP1, commercial recombinant irisin, or PBS for four days with medium change every other day for 6 days. Cells were then harvested for q-PCR analysis as described in standard protocol for gene expression analysis.
Total RNA from cells or tissues was extracted according to the instructions provided by manufacturer of RNeasy mini kit (Qiagen) using QIAzol lysis reagent (Qiagen), followed by measurements of RNA purities and concentrations by NanoDrop 2000 spectrophotometer (Thermo Scientific). A total of 1 μg of RNA was used for the reverse transcription to cDNA using the iScript™ Select cDNA Synthesis Kit (Bio-Rad Laboratories). The samples were subjected to real-time PCR using the LC480 system (Roche Diagnostics) after premixing with Precision®PLUS Master Mix (Primer Design). For each indicated gene, samples were run in duplicate in a 384-well plate and ΔΔCt method was used for quantifying the expressions after normalization to the housekeeping Rpl36 or GAPDH gene.
Firstly, we tested the dose-response effects of RUCILPs on gene expression in mouse fibroblasts (3T3-L1), mouse […] (MLO-Y4), and mouse myoblasts (C2C12). To estimate effect on adipocyte browning, we measured expression of Ucp1, Prdm16, Pgc1a, Dio2 and Cox2, and expression of AdipoQ was measured as a marker of white adipocytes. As a marker of bone formation, we measured expression of Sclerostin; and markers of myotube formation included expression of Heyl, Sox3, and Stat3.

integrin receptor = test: Integrin inhibitor pre-treatment in RUCILP2 cellular studies; format: cell-based; conditions: 10 μM for 10 minutes before RUCILP2
Method: Human white pre-adipocytes were cultured until 80% confluent and switched into differentiation media (with 0.3 ml/ml fetal calf serum, 8 μg/ml d-biotin, 0.5 μg/ml insulin, 400 ng/ml dexamethasone). The differentiation process to mature adipocytes was completed after 12-14 days. The treatment of RUCILP2 and irisin started from the third day of differentiation. For integrin complex inhibition, cells were treated with 10 μM of CycloRGDyK (Selleckchem, #S7844) for 10 minutes and washed with PBS before treated with RUCILP2 and irisin, respectively. Cells were harvested after 14 days of differentiation and thermogenesis gene were quantified by quantitative polymerase chain reaction (q-PCR).
Two days after induction, cells were switched to inducing medium in the presence of 15 nM recombinant RUCILP2, or commercial recombinant irisin (Sigma, #SRP8039-10UG and Phoenix pharmaceuticals, #067-29A), or saline for two days. After that, cells were maintained in 86 nM insulin and 1 nM T3 in the presence of indicated concentrations of recombinant RUCILP2 or commercial recombinant irisin, or saline for four days with medium change every other day. For inhibition of the integrin complex, cells were treated with 10 μM of cRGDyK for 10 minutes before treatment with recombinant RUCILP2 or commercial recombinant irisin or saline every other day during 6 days of differentiation. […]

Chain of integrin αV/β5 receptor (P06756 31-992 limits assumed): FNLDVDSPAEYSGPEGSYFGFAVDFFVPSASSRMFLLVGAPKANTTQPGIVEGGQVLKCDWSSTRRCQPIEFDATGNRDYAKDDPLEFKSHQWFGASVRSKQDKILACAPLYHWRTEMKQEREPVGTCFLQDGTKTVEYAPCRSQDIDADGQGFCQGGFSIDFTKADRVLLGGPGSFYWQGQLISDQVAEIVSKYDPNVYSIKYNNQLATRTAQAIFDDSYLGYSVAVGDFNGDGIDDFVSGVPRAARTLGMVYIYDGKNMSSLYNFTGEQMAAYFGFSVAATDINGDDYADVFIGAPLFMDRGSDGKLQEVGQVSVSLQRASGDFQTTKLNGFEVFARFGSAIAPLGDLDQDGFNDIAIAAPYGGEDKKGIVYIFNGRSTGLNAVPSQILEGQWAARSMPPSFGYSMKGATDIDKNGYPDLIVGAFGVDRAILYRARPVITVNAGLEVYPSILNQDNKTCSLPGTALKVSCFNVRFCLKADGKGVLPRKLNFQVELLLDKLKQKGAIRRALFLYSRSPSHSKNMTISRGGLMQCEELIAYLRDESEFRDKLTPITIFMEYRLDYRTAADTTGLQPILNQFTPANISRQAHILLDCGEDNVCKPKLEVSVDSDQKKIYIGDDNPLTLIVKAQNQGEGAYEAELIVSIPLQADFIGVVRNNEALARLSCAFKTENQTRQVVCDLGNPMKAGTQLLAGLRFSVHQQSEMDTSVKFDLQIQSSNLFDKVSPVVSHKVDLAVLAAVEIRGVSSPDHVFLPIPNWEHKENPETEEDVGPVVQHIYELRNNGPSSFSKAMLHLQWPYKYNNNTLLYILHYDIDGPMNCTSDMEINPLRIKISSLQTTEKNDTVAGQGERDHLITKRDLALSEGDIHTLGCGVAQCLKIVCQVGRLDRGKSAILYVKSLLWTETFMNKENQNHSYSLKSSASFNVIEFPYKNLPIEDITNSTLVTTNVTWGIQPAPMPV
Chain of integrin αV/β5 receptor (P18084 24-719 limits assumed): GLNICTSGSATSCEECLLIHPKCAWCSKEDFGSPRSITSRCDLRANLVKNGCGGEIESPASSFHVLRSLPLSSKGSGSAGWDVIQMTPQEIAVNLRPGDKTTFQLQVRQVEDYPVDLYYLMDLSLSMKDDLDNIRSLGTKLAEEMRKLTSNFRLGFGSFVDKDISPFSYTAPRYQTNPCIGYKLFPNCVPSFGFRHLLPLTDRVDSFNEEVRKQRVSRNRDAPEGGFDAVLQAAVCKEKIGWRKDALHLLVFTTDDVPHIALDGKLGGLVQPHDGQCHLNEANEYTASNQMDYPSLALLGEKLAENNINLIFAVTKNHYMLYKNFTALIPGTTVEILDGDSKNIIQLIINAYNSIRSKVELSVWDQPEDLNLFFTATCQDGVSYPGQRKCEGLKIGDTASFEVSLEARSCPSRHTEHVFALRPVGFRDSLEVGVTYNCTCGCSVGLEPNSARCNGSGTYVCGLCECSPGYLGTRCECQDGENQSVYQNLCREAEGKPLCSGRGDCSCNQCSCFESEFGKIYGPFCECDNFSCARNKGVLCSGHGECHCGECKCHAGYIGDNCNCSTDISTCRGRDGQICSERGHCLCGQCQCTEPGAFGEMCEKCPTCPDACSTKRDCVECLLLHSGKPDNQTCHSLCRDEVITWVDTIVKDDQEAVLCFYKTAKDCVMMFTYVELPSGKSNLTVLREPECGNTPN

Substance | relative integrin αV/β5 binding in 15-mer peptide library screening (integrin αV/β5 receptor) | also measured
SEQ ID NO: 183: 19-mer binding epitope of RUCILP2, residues 12-30, ETSAKASWKNAADGKEAAG (Alanine scanning sequence; (1)..(19) Alanine scanning sequence of RUCILP1) | binding epitopes | 
SEQ ID NO: 95: C-terminal 15-mer of RUCILP1, residues 74-88, ESAKSEKVEFTTVKK (Ruminococcus torques) | relatively high affinity | 
21-AABP1: the 21-amino acids fragment derived from RUCILP1 (DGTTYSVEVTAVDAAGEESAK; Ruminococcus torques) |  | effects on browning markers Ucp1, Prdm16, Dio2 (mouse 3T3-L1 fibroblasts): non-significant
SEQ ID NO: 165: 15-mer of RUCILP2, residues 70-84, AAGNESVKSEKVTFK (Ruminococcus torques) | significant binding | 
SEQ ID NO: 168: C-terminal 15-mer of RUCILP2, residues 73-87, NESVKSEKVTFKTLK (Ruminococcus torques) | relatively high affinity | 
SEQ ID NO: 169: 19-mer binding epitope of RUCILP1, residues 12-30, ETSAKVSWKNAADGKEAAG (Ruminococcus torques) | binding epitopes | 
CycloRGDyK |  | effect of pre-treatment on cellular effects of RUCILP2 (integrin receptor): blocked
SEQ ID NO: 268: 9-mer truncation of RUCILP2 epitope, residues 12-20, ETSAKASWK (Ruminococcus torques) |  | relative integrin αV/β5 binding, truncation scanning library of 19-mer epitopes (integrin αV/β5 receptor): high binding affinity
SEQ ID NO: 235: 9-mer truncation of RUCILP1 epitope, residues 12-20, ETSAKVSWK (Ruminococcus torques) |  | relative integrin αV/β5 binding, truncation scanning library of 19-mer epitopes (integrin αV/β5 receptor): high binding affinity
